Data as given in US20230265151A1, “GIP/GLP1 CO-AGONIST COMPOUNDS” (priority 2020, published 2023).
*1 amine or outer side, *2 acyl side, *3 side chain or, on linkers, in order; H or OH if unused. Where no end group is shown, it is not given here. Side-chain parts run from the residue outwards. [ ]: non-standard residue; d: D form. The star is where a group is joined. αMePhe(2-F) = C[C@](N)(Cc1ccccc1F)C(=O)O; γGlu = O=C(O)[C@H](CCC(=O)[*:2])N[*:1]; C14 diacid = O=C(O)CCCCCCCCCCCCC(=O)*; αMeY = C[C@](N)(Cc1ccc(O)cc1)C(=O)O; αMeL = CC(C)C[C@](C)(N)C(=O)O; Nle = CCCC[C@H](N)C(=O)O; Orn = NCCC[C@H](N)C(=O)O; AEEA = NCCOCCOCC(=O)O; Aib = CC(C)(N)C(=O)O

T1: human glucose-dependent insulinotropic polypeptide (GIP) receptor (human, UniProt P48546 22-466)
T1 sequence (looked up): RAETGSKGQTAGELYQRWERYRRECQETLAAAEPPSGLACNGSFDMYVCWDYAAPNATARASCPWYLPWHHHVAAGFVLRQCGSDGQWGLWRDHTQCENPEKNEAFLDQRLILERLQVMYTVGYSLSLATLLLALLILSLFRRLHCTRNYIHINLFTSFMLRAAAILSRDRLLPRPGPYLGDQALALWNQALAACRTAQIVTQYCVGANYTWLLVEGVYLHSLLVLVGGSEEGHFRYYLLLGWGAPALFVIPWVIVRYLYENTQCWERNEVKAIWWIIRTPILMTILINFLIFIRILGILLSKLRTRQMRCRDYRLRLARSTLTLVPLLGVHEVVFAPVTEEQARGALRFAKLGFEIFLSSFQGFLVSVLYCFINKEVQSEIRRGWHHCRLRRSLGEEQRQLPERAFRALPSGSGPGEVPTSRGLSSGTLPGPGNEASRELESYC


Legend:
Experiment in all cases: cell-based or functional assay
[1] = target: T1, human glucose-dependent insulinotropic …
human glucagon receptor = human glucagon receptor (human, UniProt P47871 26-477)
[2] = target: human glucagon-like peptide-1 (GLP-1) receptor (human, UniProt P43220 24-463)

Row | Binder | cAMP EC50 [1] [nM] | cAMP EC50 (human glucagon receptor) [µM] | cAMP EC50 [2] [nM] | cAMP Emax [1] [%] | cAMP Emax [2] [%]
1 | YXEGTXTSDXSIXLDXKAQXEFIXXLIKGGPSSGAPPPS (Aib2, αMeF(2F)6, OMeY10, αMeL13, Orn16, K17(Z), Aib20, D-Glu24, αMeY25, K28(Z), C-terminal NH2; Z = AEEA2-(γ-Glu)-(10-(4-carboxyphenoxy)decanoyl)) [Example 278] | 0.0173 | > 9.95 | 0.29 |  | 
2 | YXEGTXTSDXSIXLDXIAQXEFIKXLIKGGPSSGAPPPS (Aib2, αMeF(2F)6, 4Pal10, αMeL13, Orn16, Aib20, K24(Z), αMeY25, K28(Z), C-terminal NH2; Z = AEEA2-(γ-Glu)-(10-(4-carboxyphenoxy)decanoyl)) [Example 274] | 0.0226 | > 9.95 | 0.406 |  | 
3 | YXEGTXTSDXSIXLDXKAQXEFIXXLIKGGPSSGAPPPS (Aib2, αMeF(2F)6, OMeY10, αMeL13, Orn16, K17(Z), Aib20, D-Glu24, αMeY25, K28(Z), C-terminal NH2; Z = AEEA2-(γ-Glu)-CO-(CH2)10-CH3) [Example 290] | 0.0188 | > 9.95 | 0.324 |  | 
4 | YXEGTXTSDXSIXLDXKAQXKFIXXLIEGGPSSGAPPPS (Aib2, αMeF(2F)6, OMeY10, αMeL13, Orn16, K17(Z), Aib20, K21(Z), D-Glu24, αMeY25, C-terminal NH2; Z = AEEA2-(γ-Glu)-(10-(4-carboxyphenoxy)decanoyl)) [Example 277] | 0.0176 | > 9.95 | 0.225 |  | 
5 | YXEGTXTSDXSIXLDXIAQXEFIKXLIKGGPSSGAPPPS (Aib2, αMeF(2F)6, 2Nal10, αMeL13, Orn16, Aib20, K24(Z), αMeY25, K28(Z), C-terminal NH2; Z = AEEA2-(γ-Glu)-(10-(4-carboxyphenoxy)decanoyl)) [Example 283] | 0.073 | > 9.95 | 1.14 |  | 
6 | YXEGTXTSDXSIXLDXKAQXEFIEXLIEGGKSSGAPPPS (Aib2, αMeF(2F)6, 4Pal10, αMeL13, Orn16, K17(Z), Aib20, αMeY25, K31(Z), C-terminal NH2; Z = AEEA2-(γ-Glu)-CO-(CH2)12-CO2H) [Example 158] | 0.0204 | > 9.95 | 0.448 | 93.4 | 87.2
7 | YXEGTXTSDXSIXLDXKAQXEFIXXLIKGGPSSGAPPPS (Aib2, αMeF(2F)6, 2Nal10, αMeL13, Orn16, K17(Z), Aib20, D-Glu24, αMeY25, K28(Z), C-terminal NH2; Z = AEEA2-(γ-Glu)-(10-(4-carboxyphenoxy)decanoyl)) [Example 282] | 0.0193 | > 9.95 | 0.216 |  | 
8 | YXEGTXTSDXSIXLDXKAQXEFIXXLIEGGKSSGAPPPS (Aib2, αMeF(2F)6, 4Pal10, αMeL13, Orn16, K17(Z), 4Pal20, D-Glu24, αMeY25, K31(Z), C-terminal NH2; Z = AEEA2-(γ-Glu)-CO-(CH2)12-CO2H) [Example 156] | 0.0422 | > 9.95 | 4.6 |  | 
9 | YXEGTXTSDXSIXLDXIAQXKFIXXLIKGGPSSGAPPPS (Aib2, αMeF(2F)6, 4Pal10, αMeL13, Orn16, Aib20, K21(Z), D-Glu24, αMeY25, K28(Z), C-terminal NH2; Z = AEEA2-(γ-Glu)-(10-(4-carboxyphenoxy)decanoyl)) [Example 275] | 0.0152 | > 9.95 | 0.737 |  | 
10 | YXEGTXTSDXSIXLDXKAQXKFIXXLIEGGPSSGAPPPS (Aib2, αMeF(2F)6, hTyr10, αMeL13, Orn16, K17(Z), Aib20, K21(Z), D-Glu24, αMeY25, C-terminal NH2; Z = AEEA2-CO-(CH2)12-CO2H) [Example 272] | 0.0264 | > 9.95 | 0.388 |  | 
11 | YXEGTXTSDXSIXLDXKAQXKFIXXLIEGGPSSGAPPPS (Aib2, αMeF(2F)6, 2Nal10, αMeL13, Orn16, K17(Z), Aib20, K21(Z), D-Glu24, αMeY25, C-terminal NH2; Z = AEEA2-(γ-Glu)-(10-(4-carboxyphenoxy)decanoyl)) [Example 281] | 0.0187 | > 9.95 | 0.252 |  | 
12 | YXEGTXTSDXSIXLDXIAQXEFIKXLIKGGPSSGAPPPS (Aib2, αMeF(2F)6, OMeY10, αMeL13, Orn16, Aib20, K24(Z), αMeY25, K28(Z), C-terminal NH2; Z = AEEA2-(γ-Glu)-(10-(4-carboxyphenoxy)decanoyl)) [Example 279] | 0.0305 | > 9.95 | 0.406 |  | 
13 | Y[Aib]EGT[αMePhe(2-F)]TSD[Nle]SI[αMeL]LD[Orn]IAQ[Aib]EFIK([AEEA-AEEA-γGlu-C14 diacid])[αMeY]LIK([AEEA-AEEA-γGlu-C14 diacid])GGPSSGAPPPS-NH2 (N-terminus assumed; SMILES CCCC[C@H](NC(=O)[C@H](CC(=O)O)NC(=O)[C@H](CO)NC(=O)[C@@H](NC(=O)[C@](C)(Cc1ccccc1F)NC(=O)[C@@H](NC(=O)CNC(=O)[C@H](CCC(=O)O)NC(=O)C(C)(C)NC(=O)[C@@H](N)Cc1ccc(O)cc1)[C@@H](C)O)[C@@H](C)O)C(=O)N[C@@H](CO)C(=O)N[C@H](C(=O)N[C@@](C)(CC(C)C)C(=O)N[C@@H](CC(C)C)C(=O)N[C@@H](CC(=O)O)C(=O)N[C@@H](CCCN)C(=O)N[C@H](C(=O)N[C@@H](C)C(=O)N[C@@H](CCC(N)=O)C(=O)NC(C)(C)C(=O)N[C@@H](CCC(=O)O)C(=O)N[C@@H](Cc1ccccc1)C(=O)N[C@H](C(=O)N[C@@H](CCCCNC(=O)COCCOCCNC(=O)COCCOCCNC(=O)CC[C@H](NC(=O)CCCCCCCCCCCCC(=O)O)C(=O)O)C(=O)N[C@@](C)(Cc1ccc(O)cc1)C(=O)N[C@@H](CC(C)C)C(=O)N[C@H](C(=O)N[C@@H](CCCCNC(=O)COCCOCCNC(=O)COCCOCCNC(=O)CC[C@H](NC(=O)CCCCCCCCCCCCC(=O)O)C(=O)O)C(=O)NCC(=O)NCC(=O)N1CCC[C@H]1C(=O)N[C@@H](CO)C(=O)N[C@@H](CO)C(=O)NCC(=O)N[C@@H](C)C(=O)N1CCC[C@H]1C(=O)N1CCC[C@H]1C(=O)N1CCC[C@H]1C(=O)N[C@@H](CO)C(N)=O)[C@@H](C)CC)[C@@H](C)CC)[C@@H](C)CC)[C@@H](C)CC) [Example 269] | 0.0335 | > 9.95 | 1.72 |  | 
